Laboratory results: patent publication US20090130105A1 (Biogen, published 2009)
Positions count from the first letter of the chain named. Names and notes keep the numbering of the source.

B1: M14-C03 antibody (antibody, V domains shown)
VH: EVQLLESGGGLVQPGGSLRLSCAASGFTFSKYMMSWVRQAPGKGLEWVSYISPSGGLTWYADSVKGRFTISRDNSKNTLYLQMNSLRAEDTAVYYCARDGARGYGMDVWGQGTTVTVSS
VL: DIQMTQSPATLSLSPGERATLSCRASQSVSSYLAWYQQKPGQAPRLLIYDASNRATGIPARFSGSGSGTDFTLTISSLEPEDFAVYYCQQRSNWPPEVTFGPGTKVDIK
notes: Fully human full-length antibody (ATCC PTA-7445); also called M14.C03.G4.P.agly
B2: MJF034, C06 (VL/GS3/VH) scFv with VL A51G (scFv)
scFv: DIQMTQSPLSLSASVGDRVTITCQASRDIRNYLNWYQQKPGKAPKLLIYDGSSLQTGVPSRFGGSGSGTDFSFTIGSLQPEDIATYYCQQFDSLPHTFGQGTKLEIKGGGGSGGGGSGGGGSEVQLLESGGGLVQPGGSLRLSCAASGFTFSIYRMQWVRQAPGKGLEWVSGISPSGGTTWYADSVKGRFTISRDNSKNTLYLQMNSLRAEDTAVYYCARWSGGSGYAFDIWGQGTMVTVSSDDDKSFLEQKLISEEDLNSAVDHHHHHH
notes: Kabat positions
B3: MJF050, C06 (VL/GS3/VH) scFv with VH T110V (scFv, name in Kabat numbering)
scFv: B2 scFv with G51A, T239V
notes: Kabat positions
B4: MJF047, C06 (VL/GS3/VH) scFv with VL I83G (scFv)
scFv: B2 scFv with G51A, I83G
notes: Kabat positions
B5: MJF049, C06 (VL/GS3/VH) scFv with VH R83T (scFv, name in Kabat numbering)
scFv: B2 scFv with G51A, R209T
notes: Kabat positions
B6: MJF043, C06 (VL/GS3/VH) scFv with VL I83D (scFv)
scFv: B2 scFv with G51A, I83D
notes: Kabat positions
B7: MJF042, C06 (VL/GS3/VH) scFv with VL S77G, I83G (scFv)
scFv: B2 scFv with G51A, S77G, I83G
notes: Kabat positions
B8: MJF040, C06 (VL/GS3/VH) scFv with VL I83M (scFv)
scFv: B2 scFv with G51A, I83M
notes: Kabat positions
B9: MJF039, C06 (VL/GS3/VH) scFv with VL T20R, R30N, G63S, S72N (scFv)
scFv: B2 scFv with T20R, R30N, G51A, G63S, S72N
notes: Kabat positions
B10: MJF038, C06 (VL/GS3/VH) scFv with VL G63S, S72N (scFv)
scFv: B2 scFv with G51A, G63S, S72N
notes: Kabat positions
B11: MJF035, C06 (VL/GS3/VH) scFv with VL S72N (scFv)
scFv: B2 scFv with G51A, S72N
notes: Kabat positions
B12: MJF037, C06 (VL/GS3/VH) scFv with VL S72Y (scFv)
scFv: B2 scFv with G51A, S72Y
notes: Kabat positions
B13: MJF048, C06 (VL/GS3/VH) scFv with VH R83K (scFv, name in Kabat numbering)
scFv: B2 scFv with G51A, R209K
notes: Kabat positions
B14: MJF051, C06 (VL/GS3/VH) scFv with VL S77G, I83Q (scFv)
scFv: B2 scFv with G51A, S77G, I83Q
notes: Kabat positions

Target: T1, hIGF-1R-Fc mutant SD103 (D461A, V462T) (human, UniProt P08069 31-933)
T1 construct: not shown: human IgG1 Fc, C-terminal tag
Assay: SPR, immobilized antibody
Experimental: Surface plasmon resonance (SPR) experiments were performed on a Biacore 3000 instrument set to 25° C. […] The antibody sensorchip surfaces were prepared by injecting each antibody (diluted 100 μg/mL in 10 mM Acetate, pH 4.0) over EDC/NHS-activated sensorchip surfaces according to the standard protocol of the manufacturer. […] Both hIGF-1R-Fc and mIGF-1R-Fc proteins oligomerize due to the incorporation of two separate homodimeric regions (IGF-1R and IgG1-Fc). […] After, completion of the receptor-Fc loading step, flow rates were elevated to 5 μl/min. […] Dissociation was measured for 7 minutes after the antibody injections were complete. Finally, the flow rate was elevated to 30 μL/min and the chip surfaces were regenerated by 2×10 μL injections of 0.1 M glycine, pH 2.

T1 sequence (P08069 31-933 D491A/V492T): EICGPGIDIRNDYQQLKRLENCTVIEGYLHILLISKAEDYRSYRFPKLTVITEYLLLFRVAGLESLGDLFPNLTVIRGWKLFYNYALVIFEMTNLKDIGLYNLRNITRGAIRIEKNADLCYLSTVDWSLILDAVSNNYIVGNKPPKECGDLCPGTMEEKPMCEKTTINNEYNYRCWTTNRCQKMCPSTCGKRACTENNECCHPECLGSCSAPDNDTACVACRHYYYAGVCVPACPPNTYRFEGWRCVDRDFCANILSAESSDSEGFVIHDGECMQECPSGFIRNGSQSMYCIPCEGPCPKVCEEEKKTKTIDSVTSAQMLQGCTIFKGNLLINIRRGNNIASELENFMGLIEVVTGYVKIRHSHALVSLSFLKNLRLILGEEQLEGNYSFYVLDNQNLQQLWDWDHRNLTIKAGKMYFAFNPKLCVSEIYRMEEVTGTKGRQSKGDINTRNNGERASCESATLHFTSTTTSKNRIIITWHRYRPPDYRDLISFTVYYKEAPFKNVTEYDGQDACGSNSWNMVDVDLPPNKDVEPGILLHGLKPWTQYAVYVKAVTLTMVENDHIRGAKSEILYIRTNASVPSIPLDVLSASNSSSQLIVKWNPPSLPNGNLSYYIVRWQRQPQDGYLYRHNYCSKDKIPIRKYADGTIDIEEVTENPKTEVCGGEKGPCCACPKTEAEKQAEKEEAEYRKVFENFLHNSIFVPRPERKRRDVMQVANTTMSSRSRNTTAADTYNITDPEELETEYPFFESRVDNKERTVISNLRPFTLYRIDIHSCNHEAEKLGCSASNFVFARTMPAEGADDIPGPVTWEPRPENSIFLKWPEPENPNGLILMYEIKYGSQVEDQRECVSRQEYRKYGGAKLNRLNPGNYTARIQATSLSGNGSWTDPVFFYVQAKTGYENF

Binder	binding result
B1	no binding

Target: T2, human IGF-1R(1-903)-Fc (human, UniProt P08069 31-933)
T2 construct: also called hIGF-1R-Fc; SDWT; not shown: human IgG1 Fc, C-terminal tag
Assay: competition ELISA: antibody diluted in 320 nM human IGF-1 His, added to biotinylated hIGF-1R-Fc on streptavidin plates, bound IGF-1 His detected with anti-His-HRP (blocked ligand: IGF-1 His)
Experimental: (§1) hIGF-1R-Fc was biotinylated using EZ-Link Sulfo-NHS-LC-Biotin according to the protocol provided by the manufacturer (Pierce Cat. No. 21335). Biotinylated human IGF-1R Fc (NB12453-9) at 5 μg/ml was added to the wells of SigmaScreen streptavidin-coated 96-well plates (Sigma, Cat. No. M5432-5EA) at 100 μL/well and incubated overnight at 2-8° C. The plates were then washed four times with 200 μL/well PBST. […] The dilutions were added to the plates in duplicate at 100 μL/well and the plates were incubated at RT for 1 hour. The plates were then washed four times with 200 μL/well PBST. An HRP-conjugated anti-Histag antibody (Penta-His HRP Conjugate, QIAGEN, Cat. No. 1014992) was diluted 1:1000 in PBST and added to plates at 100 μL/well, and the plates were incubated at RT for one hour. The plates were then washed four times with 200 μL/well PBST. SureBlue Reserve TMB Microwell Peroxidase Substrate (KPL, Cat. No. 53-00-01) was added to plates at 100 μL/well followed by 1% phosphoric acid at 100 μL/well once the desired reaction was observed. The absorbance of each well was determined at 450 nm, and the results were normalized and plotted against the log of antibody concentration.

T2 sequence (P08069 31-933): as the sequence (P08069 31-933 D491A/V492T) above, with A461D, T462V counted along it

Binder	IC50 (read off the curve) [nM]
B1	~5

Target: T2, human IGF-1R(1-903)-Fc
Assay: competition ELISA: antibody diluted in human IGF-2 His solution, added to biotinylated hIGF-1R-Fc on streptavidin plates, bound IGF-2 His detected with anti-His-HRP (blocked ligand: IGF-2 His)
Experimental: as §1

Binder	IC50 (read off the curve) [nM]
B1	~1

Target: T2, human IGF-1R(1-903)-Fc
Assay: biolayer interferometry (Octet), IGF-1R Fc on Protein A sensors, scFv culture supernatant
Parameters: unit not given here
Source text: Individual transformed colonies were picked into deep-well 96 well dishes and processed for screening as described above. […] For off-rate analyses IGF-1R Fc was immobilized onto the surface of Protein A biosensors. […] ScFvs were allowed to bind to immobilized IGF-1R Fc for 300-seconds. Off-rate was subsequently assayed for 600 seconds.

Binder	Kd (1/sec), off-rate as tabulated (XWU092 = 1.00)
B2	0.81
B3	1.68
B4	1.44
B5	1.41
B6	1.12
B7	0.55
B8	0.76
B9	0.56
B10	0.76
B11	0.54
B12	0.76
B13	1.37
B14	1.1
